Values of other authors, collected in article PMC12818570.

Molecular target: His57 (UniProt position 57, ILPVTHTEISP)
Experiment: electrophysiology (solid-supported membrane electrophysiology, SSME, on isolated lysosomes)
Settings: 90 mM NaCl + 50 mM NaCl or KCl, 5 mM MgCl2; 30 mM HEPES, 30 mM MES, titrated with HCl or NaOH; channel in lysosomal membrane, pH equilibrated symmetrically on both sides, no applied voltage

Substance: Transmembrane protein 175 (TMEM175), endosomal/lysosomal cation channel (Homo sapiens)
- pKa: 7.0 ± 0.1
